This is an account of results in EP4722254A1 (Sunshine Guojian Pharmaceutical (Shanghai) Co., Ltd., dated 2026).

In one assay the target is FGFR2 on SNU-16 cells (human, UniProt P21802 22-821). Nature of the assay: cell-based or functional assay.
The target in assay [1] is T1, Recombinant Human-FGFR2-His protein (human, UniProt P21802-3 22-378, limits assumed).
T1 construct: Bought protein; not shown: His tag
Nature of the assay: ELISA, Human-FGFR2-His coated, anti-human Fc-HRP detection. For orientation: In an ELISA, binding on a coated surface is turned into a signal by an enzyme label.

The target in assay [2] is T2, PD-1 expressed on the surface of Jurkat-PD-1-NFAT-luc cells (UniProt Q15116 25-288, limits assumed). Nature of the assay: cell-based or functional assay.
Assay [3] concerns the target T3, Recombinant Human-PD-1-His protein (human, UniProt Q15116 25-167, limits assumed).
T3 construct: not shown: His tag
Nature of the assay: ELISA, Human-PD-1-His coated, anti-human Fc-HRP detection.

Assay [4] addresses T2, PD-1 expressed on the surface of …. Nature of the assay: flow cytometry on Jurkat-PD-1-NFAT-luc cells, anti-human Fab-FITC detection. In general terms: Flow cytometry measures light scatter and fluorescence of single cells or particles in a stream.

Where “and” joins values, the source holds several entries; their conditions need not be identical. Identical values can stand only once.

T3 sequence (Q15116 25-167 limits assumed): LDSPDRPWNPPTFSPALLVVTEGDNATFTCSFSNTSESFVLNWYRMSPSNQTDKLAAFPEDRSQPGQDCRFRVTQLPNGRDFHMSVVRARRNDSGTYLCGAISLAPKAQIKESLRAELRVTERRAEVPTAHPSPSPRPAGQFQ
T1 sequence (P21802 other isoform, or with tags, fused parts or gaps limits assumed): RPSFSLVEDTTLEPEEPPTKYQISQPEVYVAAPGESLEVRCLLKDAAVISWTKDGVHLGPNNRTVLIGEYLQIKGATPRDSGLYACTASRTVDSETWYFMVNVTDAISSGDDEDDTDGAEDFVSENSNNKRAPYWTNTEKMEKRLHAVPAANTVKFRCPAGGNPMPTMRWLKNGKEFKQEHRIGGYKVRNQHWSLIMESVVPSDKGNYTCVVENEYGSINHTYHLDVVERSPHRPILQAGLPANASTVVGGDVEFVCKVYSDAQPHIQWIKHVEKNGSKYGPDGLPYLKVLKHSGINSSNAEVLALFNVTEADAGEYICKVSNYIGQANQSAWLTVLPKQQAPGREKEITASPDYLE
T2 sequence (Q15116 25-288 limits assumed): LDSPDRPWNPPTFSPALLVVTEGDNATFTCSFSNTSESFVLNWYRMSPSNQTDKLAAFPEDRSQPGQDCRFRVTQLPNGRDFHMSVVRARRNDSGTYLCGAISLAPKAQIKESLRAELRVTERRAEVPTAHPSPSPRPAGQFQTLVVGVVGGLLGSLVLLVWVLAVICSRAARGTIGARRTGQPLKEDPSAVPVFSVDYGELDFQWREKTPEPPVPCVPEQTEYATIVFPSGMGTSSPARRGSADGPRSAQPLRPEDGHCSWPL
Sequence of FGFR2 on SNU-16 cells (P21802 22-821): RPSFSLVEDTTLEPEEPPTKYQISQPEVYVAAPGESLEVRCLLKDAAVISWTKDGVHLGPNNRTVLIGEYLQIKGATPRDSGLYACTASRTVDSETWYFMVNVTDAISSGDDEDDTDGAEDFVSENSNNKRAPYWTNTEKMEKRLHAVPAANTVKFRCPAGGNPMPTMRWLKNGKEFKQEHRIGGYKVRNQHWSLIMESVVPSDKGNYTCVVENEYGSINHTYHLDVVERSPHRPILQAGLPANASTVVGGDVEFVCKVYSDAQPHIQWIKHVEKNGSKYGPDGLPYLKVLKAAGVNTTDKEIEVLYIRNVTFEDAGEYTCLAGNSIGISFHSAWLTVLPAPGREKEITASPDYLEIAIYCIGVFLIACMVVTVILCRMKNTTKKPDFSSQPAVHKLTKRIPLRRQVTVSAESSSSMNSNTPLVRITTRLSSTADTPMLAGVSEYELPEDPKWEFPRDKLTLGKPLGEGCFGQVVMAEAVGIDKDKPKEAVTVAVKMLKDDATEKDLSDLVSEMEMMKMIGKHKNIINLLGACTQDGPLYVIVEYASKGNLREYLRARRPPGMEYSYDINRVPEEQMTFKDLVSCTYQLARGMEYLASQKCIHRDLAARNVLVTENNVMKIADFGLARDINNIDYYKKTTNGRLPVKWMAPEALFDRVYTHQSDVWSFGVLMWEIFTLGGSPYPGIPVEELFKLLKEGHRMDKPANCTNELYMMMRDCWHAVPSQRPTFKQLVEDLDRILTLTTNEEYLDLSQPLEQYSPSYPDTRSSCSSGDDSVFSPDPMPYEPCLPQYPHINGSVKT

B1: anti-FGFR2 monoclonal antibody (antibody, human IgG1, kappa, V domains shown)
VH: QVQLVQSGAEVKKPGSSVKVSCKASGYTFTSYWMHWVRQAPGQGLEWMGAIYPGNSDTDYSGKFKGRVTITADESTSTAYMELSSLRSEDTAVYYCSKFDYWGQGTLVTVSS
VL: EIVLTQSPATLSLSPGERATLSCRASSSVNYMYWYQQKPGQAPRPWIYLTSNRATGVPARFSGSGSGTDYTLTISSLEPEDFAVYYCQQWSSNPYTFGQGTKLEIKR
notes: also called positive control anti-FGFR2 monoclonal antibody; anti-FGFR2 mAb
With B1, the “EC50 of ADCC (NK cell killing of SNU-16 cells, LDH release)” value with FGFR2 on SNU-16 cells came out at 3.03 nM. Besides, the EC50 in assay [1] was 0.0392 nM and 0.0297 nM.

B2: anti-FGFR2/PD-1 bispecific antibody a (bispecific antibody, human IgG1, kappa)
heavy: not shown
light: EIVLTQSPATLSLSPGERATLSCRASSSVNYMYWYQQKPGQAPRPWIYLTSNRATGVPARFSGSGSGTDYTLTISSLEPEDFAVYYCQQWSSNPYTFGQGTKLEIKRTVAAPSVFIFPPSDEQLKSGTASVVCLLNNFYPREAKVQWKVDNALQSGNSQESVTEQDSKDSTYSLSSTLTLSKADYEKHKVYACEVTHQGLSSPVTKSFNRGEC
notes: Anti-FGFR2 IgG with an anti-PD-1 scFv (VL-L1-VH) on the C-terminus of each heavy chain; wild-type Fc; also called anti-FGFR2/PD-1 bispecific antibody molecule a
As for B2, the “IC50 for the blockade of PD-1 and PD-L1 binding (NFAT-luc reporter luminescence)” value in assay [2] worked out at 0.481 nM. The EC50 in assay [1] is 0.0568 nM; in assay [3] it was 0.122 nM and 0.16 nM; in assay [4], 0.482 nM.

B3: anti-FGFR2/PD-1 bispecific antibody d (bispecific antibody, human IgG1, kappa)
heavy: not shown
light: B2 light
notes: Anti-FGFR2 IgG with an anti-PD-1 scFv in VH-L1-VL order on the C-terminus of each heavy chain; also called anti-FGFR2/PD-1 bispecific antibody molecule d
As for B3, the EC50 in assay [1] was 0.0615 nM; in assay [3], 0.356 nM.

B4: anti-FGFR2/PD-1 bispecific antibody b (bispecific antibody, human IgG1, kappa)
heavy: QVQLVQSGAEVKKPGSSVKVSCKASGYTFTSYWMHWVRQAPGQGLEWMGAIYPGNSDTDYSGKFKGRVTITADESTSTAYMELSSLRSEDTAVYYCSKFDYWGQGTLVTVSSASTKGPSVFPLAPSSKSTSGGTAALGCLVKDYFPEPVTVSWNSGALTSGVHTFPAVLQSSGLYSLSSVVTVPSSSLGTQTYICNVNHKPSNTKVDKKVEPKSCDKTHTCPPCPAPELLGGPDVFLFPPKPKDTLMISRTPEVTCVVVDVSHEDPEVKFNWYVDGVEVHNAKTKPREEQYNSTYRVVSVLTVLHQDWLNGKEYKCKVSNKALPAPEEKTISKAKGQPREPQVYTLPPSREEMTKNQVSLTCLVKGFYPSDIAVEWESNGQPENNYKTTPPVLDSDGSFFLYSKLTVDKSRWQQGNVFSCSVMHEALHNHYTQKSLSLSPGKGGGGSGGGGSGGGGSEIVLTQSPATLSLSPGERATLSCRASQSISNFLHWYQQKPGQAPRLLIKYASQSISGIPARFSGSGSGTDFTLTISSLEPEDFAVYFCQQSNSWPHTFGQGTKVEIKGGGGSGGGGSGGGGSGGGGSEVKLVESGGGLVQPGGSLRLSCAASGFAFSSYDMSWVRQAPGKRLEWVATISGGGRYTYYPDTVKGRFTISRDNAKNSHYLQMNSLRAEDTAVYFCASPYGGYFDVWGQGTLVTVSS
light: B2 light
notes: also called anti-FGFR2/PD-1 bispecific antibody molecule b
Consider B4, for which, in assay [2], the “IC50 for the blockade of PD-1 and PD-L1 binding (NFAT-luc reporter luminescence)” value is 2.35 nM. The “EC50 of ADCC (NK cell killing of SNU-16 cells, LDH release)” value with FGFR2 on SNU-16 cells turned out to be 4.62 nM. Besides, the EC50 in assay [1] was found to be 0.0512 nM; in assay [3], 0.141 nM; in assay [4], 0.634 nM.

What is called EC50 is the concentration that produces a half-maximal response.
